The source of these data is article doi:10.1101/2022.10.27.514035, “Membrane curvature-generating proteins crucial for autophagosome formation” (bioRxiv, 2022).

This experiment concerns the target T1, S. cerevisiae Atg40, SBP-tagged (S. cerevisiae, UniProt Q99325 1-256).
T1 construct: Atg40, ERphagy receptor of Saccharomyces cerevisiae; 'SBP-tagged full-length sjRop1, scAtg40': full-length is read as holding for both; also called scAtg40; not shown: SBP, C-terminal, kept
T1 sequence (looked up): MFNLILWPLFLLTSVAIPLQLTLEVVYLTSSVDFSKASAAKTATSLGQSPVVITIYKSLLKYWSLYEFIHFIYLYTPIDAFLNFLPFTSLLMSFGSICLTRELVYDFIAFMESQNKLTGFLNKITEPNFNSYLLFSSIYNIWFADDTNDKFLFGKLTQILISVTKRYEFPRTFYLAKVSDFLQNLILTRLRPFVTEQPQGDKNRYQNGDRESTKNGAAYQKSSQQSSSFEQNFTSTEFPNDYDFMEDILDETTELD
As to the kind of experiment: pull-down; SBP-tagged protein held on streptavidin beads, incubated with purified Atg8 for 1 h at 4 °C in 25 mM HEPES/KOH pH 7.4, 150 mM NaCl, 0.05% DDM; eluate on SDS-PAGE, Coomassie blue. As to conditions: both partners purified.

B1: S. cerevisiae Atg8, His10-tagged (natural protein, UniProt P38182 1-117, looked up)
chain: MKSTFKSEYPFEKRKAESERIADRFKNRIPVICEKAEKSDIPEIDKRKYLVPADLTVGQFVYVIRKRIMLPPEKAIFIFVNDTLPPTAALMSAIYQEHKDKDGFLYVTYSGENTFGR
notes: Atg8, ubiquitin-like autophagy protein of Saccharomyces cerevisiae; also called scAtg8; source: E. coli, purified (Ni-NTA, SEC on Superdex 75)
Take B1: the binding result is given as “binds”.
